Test results reported in article PMC8837033.

Molecular target: Shp-2 (UniProt P35235)
Assay: anti-FLAG co-IP, Shp-2 immunoblot
Conditions: reference: wild type, 1 mM pervanadate; sites Y447,Y470

## Siglec-8 (from UniProt Q9NYZ4) Y447F+Y470F, 1 mM pervanadate
  binding against the reference: lost
